Measured values: doi:10.1101/257543 (bioRxiv, 2018)
Where a chain is given by its changes, count along the chain named. In names and notes the source's numbering stands.

Legend:
Test in all cases: ITC
[1] = target: T1, SERK3^F60A LRR ectodomain (A. thaliana, UniProt Q94F62 26-220, F60A)
T1 sequence (looked up): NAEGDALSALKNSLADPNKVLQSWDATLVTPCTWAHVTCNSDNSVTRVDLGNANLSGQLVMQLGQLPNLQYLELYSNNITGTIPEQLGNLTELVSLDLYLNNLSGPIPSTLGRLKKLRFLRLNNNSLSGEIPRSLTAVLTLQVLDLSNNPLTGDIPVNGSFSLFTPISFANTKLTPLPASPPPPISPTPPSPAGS

[2] = target: T2, SERK3^D122N LRR ectodomain (elg) (A. thaliana, UniProt Q94F62 26-220, D122N)
T2 sequence (looked up): T1 sequence (looked up) with A35F, D97N

[3] = target: T3, SERK3 LRR ectodomain (SERK3^1-220), wild type (A. thaliana, UniProt Q94F62 26-220)
T3 sequence (looked up): T1 sequence (looked up) with A35F

[4] = target: different SERK ectodomains

B1: BIR2 LRR ectodomain (BIR2^1-222), wild type (domain or fragment, A. thaliana, UniProt Q9LSI9 29-222, looked up)
chain: ADEDDIRCLRGLKASLTDPQNALKSWNFDNTTLGFLCNFVGVSCWNNQENRVINLELRDMGLSGKIPDSLQYCASLQKLDLSSNRLSGNIPTELCNWLPFLVSLDLSNNELNGEIPPDLAKCSFVNSLVLSDNRLSGQIPVQFSALGRLGRFSVANNDLSGRIPVFFSSPSYSSDDFSGNKGLCGRPLSSSCGG
modifications: N-glycan at Asn58 (in the crystal structure)
binding result [1]: binds | fold reduction of binding against wild-type SERK3 [2]: ~8 fold | binding result [3]: binds | Kd [4]: 1000 to 3000 nM

B2: BIR2^E84R LRR ectodomain (domain or fragment, A. thaliana, UniProt Q9LSI9 29-222, looked up)
chain: B1 chain with E56R
binding result [3]: binds

B3: BIR2^V157D LRR ectodomain (domain or fragment, A. thaliana, UniProt Q9LSI9 29-222, looked up)
chain: B1 chain with V129D
binding result [3]: binds

B4: BIR2^W73A LRR ectodomain (domain or fragment, A. thaliana, UniProt Q9LSI9 29-222, looked up)
chain: B1 chain with W45A
binding result [3]: binds

B5: BIR3 LRR ectodomain (BIR3^1-213) (domain or fragment, A. thaliana, UniProt O04567 25-213, looked up)
chain: EDDVLCLQGLKNSLIDPSSRLSSWSFPNSSASSICKLTGVSCWNEKENRIISLQLQSMQLAGEIPESLKLCRSLQSLDLSGNDLSGSIPSQICSWLPYLVTLDLSGNKLGGSIPTQIVECKFLNALILSDNKLSGSIPSQLSRLDRLRRLSLAGNDLSGTIPSELARFGGDDFSGNNGLCGKPLSRCGA
modifications: N-glycosylated (fully glycosylated in the crystal; sites not given)
fold reduction of binding against wild-type SERK3 [2]: ~4 fold | Kd [3]: ~1000 nM | stoichiometry N [3]: 1 | Kd [4]: 1000 to 3000 nM
